# ± gives the standard deviation of the averaged measurements.
# Test system: VchCAST RNA-guided transposition machinery (E. coli BL21(DE3) host, lacZ target)
# Assay: relative integration efficiency (T-LR orientation) vs wild-type transposon end (log2 (normalized fold change)); transposon end mutated: right end (5 bp flank + 75 bp right end); higher = more efficient transposition
# In short: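 In E. coli BL21(DE3), a T7-driven effector plasmid was paired with a pUC57 mini-transposon donor containing 1549 left-end or 1849 right-end barcoded transposon variants. Cells grew on plates with 0.1 mM IPTG at 37°C for 18 h. Relative integration efficiency was derived from Illumina reads of genomic integration junctions against input plasmids, as a log-transformed output/input barcode fold change normalised to reference barcodes.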
row,Sequence,relative integration efficiency (log2)
1,ACATTTCTCGATACAACCATAAAATGATAATTACACCCATAAATTGATAATTATCACACCCAATTTAACTATAACGCTCTGATCATAGTCAGACCAACATTGCTACGACCCGTATTCGCACCGACAC,1 ± 0.028
2,ACATTTGTTGATACAACCATAAATAGATAATTACACCCATAAATTGATAATTATCACACCCATAAATTGATATTGCCTCTGATCATAGTCAGACCAACATTGCTACGACCCGTATTCGCACCGACAC,-0.506 ± 0.44
3,ACATTTGTTGATACAACCATAAAATGATCATTACCCCCATAAATTGATAATTATCCCACCCAATTTAACTATAACGCTCTGATCATAGTCAGACCAACATTGCTACGACCCGTATTCGCACCGACAC,1.58 ± 0.2
4,ACATTTGTTGATACAACCATAAAATGATCATTACCCCCATCAATTGATAATTATCCCACCCAATTTAACTATAACGCTCTGATCATAGTCAGACCAACATTGCTACGACCCGTATTCGCACCGACAC,0.227 ± 0.14
5,ACATTTGTTGATACAACCATAAAATGATAATTACACCCATACCTTGATAATTATCACACCCATAAATTGATATTGCCTCTGATCATAGTCAGACCAACATTGCTACGACCCGTATTCGCACCGACAC,-0.978 ± 0.071
6,ACATTTGTTGATACAACCATAAAATGATATATACACCCATAAATTGATAATTATCACACCCATAAATTGATATTGCCTCTGATCATAGTCAGACCAACATTGCTACGACCCGTATTCGCACCGACAC,0.0362 ± 0.23
7,ACATTTGTTGATACAACCATAAAATGATAATTAGACCCCATAATTGATAATTATCACACCCATAAATTGATATTGCCTCTGATCATAGTCAGACCAACATTGCTACGACCCGTATTCGCACCGACAC,-3.27 ± 0.54
8,ACATTTGTTGATACAACCATAAAATGATAATTACACCCATAAATTGATAATTATCACTGCCATAAATTGATATTGCCTCTGATCATAGTCAGACCAACATTGCTACGACCCGTATTCGCACCGACAC,1.72 ± 0.2
9,ACATTTGTTGATACAACCATTAAATGATAATTCCACCAATAAATTGATAATTATCACACCCAATTTAACTATAACGCTCTGATCATAGTCAGACCAACATTGCTACGACCCGTATTCGCACCGACAC,1.37 ± 0.042
10,ACATTTGTTGATACAACCATAAAGTGATATTTACAACCATATATTGATATCTCTCACACCCATAAATTGATAATTACTCTGATCATAGTCAGACCAACATTGCTACGACCCGTATTCGCACCGACAC,0.444 ± 0.39
11,ACATTTGCTGATACTACCATTTAATGATAATAACACCCCTAAAATGATAATTATCACACCCAATTTAACTATAACGCTCTGATCATAGTCAGACCAACATTGCTACGACCCGTATTCGCACCGACAC,-4.07 ± 0.06
12,ACATTTGTGGATCCAACCATAAAATGATAATTACACCCATAAATGGATCATTATCACACCCAATTTAACTATAACGCTCTGATCATAGTCAGACCAACATTGCTACGACCCGTATTCGCACCGACAC,0.845 ± 0.06
13,ACATTTGTTGATACAACCATAAAATGATAATTACAGGGTTAAATTGATAATTATCACACCCATAAATTGATATTGCCTCTGATCATAGTCAGACCAACATTGCTACGACCCGTATTCGCACCGACAC,-2.54 ± 0.42
14,ACATTAGTTGATACAACCATAAAATGATAATTACACCCATAAATGGATCATTATCACACCCAATTTAACTATAACGCTCTGATCATAGTCAGACCAACATTGCTACGACCCGTATTCGCACCGACAC,-4.72 ± 0.67
15,ACATTTGTTGATACAACCATATATTGATATCTCCAACCATAAGTTGATATTTTTCACAACCATAAGTTGATATTTTCTCTGATCATAGTCAGACCAACATTGCTACGACCCGTATTCGCACCGACAC,-0.31 ± 0.26
16,ACATTTGTTGATACAACCATAAAAGGATAATTCACCCATAAATTGATAATTATCACACCCACATTTAACTATAACGCTCTGATCATAGTCAGACCAACATTGCTACGACCCGTATTCGCACCGACAC,0.902 ± 0.15

row,Sequence,relative integration efficiency (log2)
1,ACATTTGTTGATACAACCATAAAATGATAATTACACCCATAAATTGATAATTATCACACGGATAAATTGATATTGCCTCTGATCATAGTCAGACCAACATTGCTACGACCCGTATTCGCACCGACAC,1.28 ± 0.22
2,ACATTTGTTGATACAACCATATATTGATATCTCCAACCATATATTGATATCTCTCACACCCATAAATTGATATTGCCTCTGATCATAGTCAGACCAACATTGCTACGACCCGTATTCGCACCGACAC,-0.162 ± 0.005
3,ACATTTGTCGATACAACCATAAAACGATAATTACACCCATAAATTGATAATTATCACACCCAATTTAACTATAACGCTCTGATCATAGTCAGACCAACATTGCTACGACCCGTATTCGCACCGACAC,2.07 ± 0.094
4,ACATTTGTTGATACAACCATAAAATGATAATTACACCCATAATTTGATAATTACCACTCCCAATTTAACTATAACGCTCTGATCATAGTCAGACCAACATTGCTACGACCCGTATTCGCACCGACAC,2.36 ± 0.071
5,ACATTTGTTGATACAACCATAAAATGATAATTACACCCATAAATTGATAATTATCACACCCATAAATTGATATTTAAGCTGATCATAGTCAGACCAACATTGCTACGACCCGTATTCGCACCGACAC,-0.0384 ± 0.075
6,ACATTTGTTGATAGAACCATTTAATGATAATAACACCCATAAAATGATAATTATCACACCCAATTTAACTATAACGCTCTGATCATAGTCAGACCAACATTGCTACGACCCGTATTCGCACCGACAC,0.598 ± 0.17
7,ACATTTGTTGATACACCCATAAATTGATAATTACAACCATATATTGATATCTCTCACAACCATAAAATGATAATTACTCTGATCATAGTCAGACCAACATTGCTACGACCCGTATTCGCACCGACAC,-0.825 ± 0.58
8,ACATTTGTTGATACAACCATAAAATGATAATTACAACCATAAAATGATAATTATCACAACCATATATTGATATCTCCTCTGATCATAGTCAGACCAACATTGCTACGACCCGTATTCGCACCGACAC,0.049 ± 0.22
9,ACATTTGTTGATACAACCATCAAATGATAATTACACCCCTAAATTGATAATTATCACACCCAATTTAACTATAACGCTCTGATCATAGTCAGACCAACATTGCTACGACCCGTATTCGCACCGACAC,-0.622 ± 0.093
10,ACATTTGTTGATACAACCATAAAATGATAATTACACCACGCAATTGATAATTATCACACCCATAAATTGATATTGCCTCTGATCATAGTCAGACCAACATTGCTACGACCCGTATTCGCACCGACAC,-2.53 ± 0.18
11,ACATTTGTTGATACAACCATCAAATGGTAATTACACCCCTAAATTGATAATTATCACACCCAATTTAACTATAACGCTCTGATCATAGTCAGACCAACATTGCTACGACCCGTATTCGCACCGACAC,-2.01 ± 0.77
12,ACATTTGTTGATACCACCATCAAATGATAATTCCACCCATACATTGATAATTATCACACCCAATTTAACTATAACGCTCTGATCATAGTCAGACCAACATTGCTACGACCCGTATTCGCACCGACAC,-1.66 ± 0.086
13,ACATTTGTTGATAACCAACGCCCCGTCGCCGGCACAAACGCCCGGTCGCCGGCTCAACAAACGCCCGGTCGCGGTACTCTGATCATAGTCAGACCAACATTGCTACGACCCGTATTCGCACCGACAC,-6.65 ± 2
14,ACATTTGTTGATACAACCCTAAAATGATAATTACACCCATAAATGGATAATTATCACACCCAATTTAACTATAACGCTCTGATCATAGTCAGACCAACATTGCTACGACCCGTATTCGCACCGACAC,-0.403 ± 0.044
15,ACATTTGTCGATCCAACCATAAAATGATAATTACACCCATAAATTCATAATTATCACACCCAATTTAACTATAACGCTCTGATCATAGTCAGACCAACATTGCTACGACCCGTATTCGCACCGACAC,0.641 ± 0.68
16,ACATTTGTTGATACAACCATAAAATGATAATTAGTGGGTATTTAACTATTAATTCAGTGGGTATTTAACTATAACGCTCTGATCATAGTCAGACCAACATTGCTACGACCCGTATTCGCACCGACAC,1.17 ± 0.31
